In article PMC12422969:

Biological target: GluA3-G (GluA3(Gly439)), flip splice form, R/G-edited, as the GluA3 part of the GluA3-G–TARP-γ2 tandem construct (rat)
Assay: cryo-EM structure; apo state; GluA3–TARP-γ2 tandem construct purified as a complex from Expi293 cells (digitonin lysis; 50 mM Tris pH 8, 150 mM NaCl, 0.1% GDN), 2–3 mg/ml, vitrified at 4 °C

With “GluA3-G (GluA3(Gly439)), flip splice form, R/G-edited, as the GluA3 part of the GluA3-G–TARP-γ2 tandem construct (receptor)” the stoichiometry N was 4.
